In patent US20190202912A1 (NEXTCURE, published 2019) one finds Kd, koff and kon data, which are given here for 18 molecules.

In this assay the target is T1, S15-extra cellular domain (ECD) monomer (human, UniProt Q6ZMC9 20-263).
T1 construct: also called S15 monomer protein
T1 sequence: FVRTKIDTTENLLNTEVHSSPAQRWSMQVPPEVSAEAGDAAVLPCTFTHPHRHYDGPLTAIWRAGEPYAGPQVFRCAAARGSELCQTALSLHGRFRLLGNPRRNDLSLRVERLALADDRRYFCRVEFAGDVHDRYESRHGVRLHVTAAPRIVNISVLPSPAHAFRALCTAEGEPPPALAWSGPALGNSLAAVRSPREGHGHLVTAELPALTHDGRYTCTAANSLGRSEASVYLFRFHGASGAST
Briefly: BLI (Octet RED96), mAb on anti-human Fc sensors, S15-ECD monomer in solution, global fit. As for the experimental part: Optimized KD experiments were performed on a ForteBio Octet RED96 instrument using anti-human Fc capture (AHC, 18-5060; ForteBio) sensors. Assay buffer was PBS containing 0.05% Tween-20 and regeneration buffer was 10 mM glycine (pH 1.5). First the antibodies were loaded at 1 μg/mL for 600 seconds. This was followed by a 60 second baseline step, a 300 second association step in S15-extra cellular domain (ECD) monomer, and finally a 1200 second dissociation step. The monomer concentrations ranged from 100 nM to 1.56 nM in a two-fold dilution series and a blank well was included. Data was processed using ForteBio's Data Analysis Software 7.0; a global fit was used, along with reference well subtraction. Reported values are the average of at least three independent octet runs.
Background: Biolayer interferometry detects binding as a change in optical thickness at a sensor tip.

B1: 92A (antibody, V domains shown)
VH: DVQLQESGPGLVKFSQSLSLTCSVTGYSITSGYYWNWIRQFPGNKLEWMGYIRHDGSNNYNPSLKNRISITRDTSKNQFFLKLNSVITEDTATYYCVREIYDGSSGYFDVWGTGTTVTVSS
VL: QIVLTQSPAIMSASLGEEITLICSASSSVSYMHWYQQKSGTSPKLLIYRTSNLASGVPSRFSGSGSGTFYSLTISSVEAEDAADYYCHQWSSWTFGGGTQLEIK
notes: Mouse anti-human Siglec-15 mAb; also called NC92
Turning to B1, the Kd – broadly, the constant that tells how readily two partners part at equilibrium – stood at 1.42 nM; the koff (in general, the first-order rate constant of dissociation) was found to be 0.00014 s⁻¹; the kon (commonly the rate constant with which the complex forms) turned out to be 99000 M⁻¹ s⁻¹.

B2: 10G9 (antibody, V domains shown)
VH: EVQLLETGGGLVQPGGSRGLSCEGSGFTFSDFWMSWVRQTPGKTLEWIGDINSDGSAVNYAPSIKDQFTIFRDNDKRTLHLQMINVRSEDTATYFCVRYDDYGYFDVWGTGTTVTVSS
VL: QAVVTQESALTTSPGETVTLTCRSSTGAVTTSNYANWVQEKPDHLFTGLIGGTNNRAPGVPARFSGSLIGDKAALTITGAQTEDEAIYFCALWYSNHWVFGGGTKLTVL
notes: Mouse anti-human Siglec-15 mAb
On to B2, for which the equilibrium dissociation constant (Kd) was found to be 0.55 nM, the koff came out at 0.000152 s⁻¹ and the kon was 277000 M⁻¹ s⁻¹.

B3: 8H8 (antibody, V domains shown)
VH: EVQLLETGGGLVQPGGSRGLSCEGSGFTFSGFWMSWVRQTPGKTLEWIGDINSDGSAINYAPSIKDRFTIFRDNDKNTLYLQMNNVRSEDTATYFCVRYDDYGYFDVWGTGTTVTVSS
VL: QAVVTQESALTTSPGETVTLTCRSSSGAVTTGNFANWVQEKPDHLFTGLIGGTNNRAPGVPARFSGSLIGDKAALTITGAQTEDEAIYFCALWYSNHWVFGGGTKLTVL
notes: as for B2
Regarding B3, the Kd came to 1.3 nM, the koff is 0.00027 s⁻¹ and the kon is 209000 M⁻¹ s⁻¹.

B4: 83B (antibody, V domains shown)
VH: EVQLQQSGPELVKPGASVKMSCKASGYTFTDYNMHWVKQSHGKSLEWIGYINPNNGGTSYNQKFKDKATLTVNKSSSTAFMELRSLASEDSAVYYCARSDWEDCWGQGTTLTVSS
VL: EIQMTQSPSSMSASLGDRITITCQATQDIVKNLNWYQQKPGKPPSFLIYYATELAEGVPSRFSGSGSGSDYSLTISNLESEDFADYYCLQFYEFPYTFGGGTKLEIK
notes: Mouse anti-human Siglec-15 mAb; also called NC83
As to B4, the Kd was 1.19 nM, the koff turned out to be 0.000415 s⁻¹ and the kon stood at 353000 M⁻¹ s⁻¹.

B5: 99B (antibody, V domains shown)
VH: QVQLQQSGAELARPGASVKLSCKASGYTFTSDGITWLKQRTGQGLEWIGQIHPRSGNTYYNEKFKGKATLTADKSSSTAYMELRSLTSEDSAVYFCAKTGTGDYWGQGTTLTVSS
VL: not shown
notes: Mouse anti-human Siglec-15 mAb; also called NC99
Molecule B5 returned a Kd of 3.86 nM, a koff of 0.000102 s⁻¹ and a kon of 32000 M⁻¹ s⁻¹.

B6: 82B (antibody, V domains shown)
VH: QVQLQQSGAELARPGASVKLSCKASGYTFTSDGITWVKQRTGQGLEWIGQIHPRSGNTYYNGKFKGKATLTADRSSSTTYMELRSLTSEDSAVYFCAKTGTGDYWGQGTTLTVSS
VL: not shown
notes: Mouse anti-human Siglec-15 mAb; also called NC82
On to B6, for which the Kd came to 4.84 nM, the koff came to 0.0001 s⁻¹ and the kon is 23000 M⁻¹ s⁻¹.

B7: 104B (antibody, V domains shown)
VH: QVQLQQSGPELARPGASVKLSCKASGYTFTSYGISWVKQRTGQGLEWIGQIHPRSGNTYYNENFKGKATLTAAKSSSTAYLELRSLTSEDSAVYFCAREGGPDYWGQGTTLTVSS
VL: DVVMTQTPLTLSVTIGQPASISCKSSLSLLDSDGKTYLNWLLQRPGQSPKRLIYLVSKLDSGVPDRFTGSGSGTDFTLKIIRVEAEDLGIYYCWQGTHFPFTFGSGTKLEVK
notes: Mouse anti-human Siglec-15 mAb; also called NC104
In turn, B7 came in with a Kd of 3.08 nM, a koff of 5.9e-05 s⁻¹ and an on-rate (kon) of 23000 M⁻¹ s⁻¹.

B8: 105A (antibody, V domains shown)
VH: EVQLQQSGAELVRPGASVKLSCTASGFNIKDDYMHWVKQRPEQGLEWIGCIDPENGDIEYASRFQGKATMTADTSSNTAYLQLTSLTSADTAVYYCTTYVGFGYWGQGTLVTVSA
VL: DVLMTQTPLSLPVSLGDQASISCRSSQSIVHSNGNTYLEWYLQKPGQSPKLLIYKVSNRFSGVPDRFSGSGSGTDFTLKISRVEAEDLGVYYCFQGSHVPLTFGAGTKLELK
notes: Mouse anti-human Siglec-15 mAb; also called NC105
On to B8, for which the Kd came out at 1.39 nM, the koff is 0.000102 s⁻¹ and the kon amounted to 72000 M⁻¹ s⁻¹.

B9: 1C12 (antibody, V domains shown)
VH: EVQLVESGGGLVKPGGSLKLSCAASGFSFSDYGMHWVRQAPEKGLEWVAYISSGSSILYYADIVKGRFTISRDNAKNTLFLQMTSLRSEDTAMYYCARDHYHGNGSDYWGQGTTLTVSS
VL: DVLMTQTPLSLPVSLGDQASISCRSSQSIVHSNGNTYLEWYLQKPGQSPKLLIYKVSNRFSGVPDRFSGSGSGTDFTLKISRVEAEDLGVYYCFQGSHVPWTFGGGTKLEIK
notes: as for B2
Turning to B9, the Kd amounted to 4.01 nM, the koff amounted to 0.000423 s⁻¹ and the kon was 105000 M⁻¹ s⁻¹.

B10: 6A (antibody, V domains shown)
VH: EVQLQQSGAELVRPGASVKLSCTASGFNIKDDYMHWVKQRPEQGLEWIGCIDPENGDTEYASKFQDKATITTDTSSNTAYLQLSSLTSEDTAVYYCTTYVGFAYWGQGTLVTVST
VL: DVLMTQTPLSLPVSLGDQASISCRSSQSIVHSNGNTYLEWYLQKPGQSPKLLIYKVSNRFSGVPDRFSGSGSGTDFTLRISRVEAEDLGVYYCFQGSHVPLTFGAGTKLELK
notes: Mouse anti-human Siglec-15 mAb; also called NC6
B10 gave a Kd of 2.94 nM, a koff of 0.000211 s⁻¹ and a kon of 73000 M⁻¹ s⁻¹.

B11: 1B2 (antibody, V domains shown)
VH: EVQLVESGGGFVKPGGSLKLSCAASGFTFSDYGMHWVRQAPEKGLEWVAYISSGSSIIYYADTVKGRFTISRDNAKNTLFLQMTSLRSEDTAMYYCARDHYHGNGSDYWGQGTTLTVSS
VL: DVLMTQTPLSLPVSLGDQASISCRSSQSIVHSNGNTYLEWYLQKPGQSPKLLIYKVSNRFSGVPDRFSGSGSGTDFTLKISRVEAEDLGVYYCFQGSHVPWTFGGGTKLEIK
notes: as for B2
B11: binding was characterised by a dissociation constant (Kd) of 4.33 nM, the koff amounted to 0.000609 s⁻¹ and the on-rate (kon) turned out to be 143000 M⁻¹ s⁻¹.

B12: 77A (antibody, V domains shown)
VH: EVQLQQSGAELVRPGASVKLSCTASGFNIKDDYMHWVKQRPEQGLEWIGCIDPENGDTEYASKFQGKATITADTSSNTVYLQLSSLTSEDTAVYYCTTYVGFGYWGQGTLVTVSA
VL: DVLMTQSPLSLPVSLGDQASISCRSSQNIVHSNGNTYLEWYLKKPGQSPKLLIYKVSNRFSGVPDRFSGSGSGTDFTLKISRVEAEDLGMYYCFQGSHVPLTFGAGTKLELK
notes: Mouse anti-human Siglec-15 mAb; also called NC77
B12 displayed a Kd of 1.93 nM, a koff of 0.000143 s⁻¹ and a kon of 72000 M⁻¹ s⁻¹.

B13: 80A (antibody, V domains shown)
VH: QVQLKQSGAELVRPGASVKLSCRASGYTFTDFYINWVKQRPGQGLEWIARIYPGSDETYYNEKFKDKVTLTAEKSSSTAYMQLSSLTSEDSAVYFCALWFFDVWGTGTTVTVSS
VL: DIVMTQSPSSLTVTAGEKVTMSCKSNQSLLNSGDQKNYLTWYQQKPGQPPKLLIYWASTRESGVPDRFTGSGSGTDFTLTISSVQAEDLAIYYCQNDYSYPLTFGAGTKLELK
notes: Mouse anti-human Siglec-15 mAb; also called NC80
Molecule B13 came in with a Kd of 0.5 nM, an off-rate constant (koff) of 0.000175 s⁻¹ and a kon of 348000 M⁻¹ s⁻¹.

B14: 93B (antibody, V domains shown)
VH: QVQLKQSGAELVRPGASVKLSCKASGYTFTDYYINWVKQRPGQGLEWIARIYPGNGNTDYNEKFKDKATLTAEKSSTTAYIQLSSLTSEDSAVYFCCLWYFDVWGTGTTVTVSS
VL: DIVMTQSPSSLTVTAGEKVTMSCKSSQSLLNSGNQKNYLTWYQQKPGQPPKLLIYWASTRESGVPDRFTGSGSGTDFTLTISNVQPEDLAVYYCQNDYSFPFTFGSGTELEMK
notes: Mouse anti-human Siglec-15 mAb; also called NC93
As to B14, binding was put at a Kd of 0.88 nM, the koff worked out at 0.000162 s⁻¹ and the kon was determined as 185000 M⁻¹ s⁻¹.

B15: 1C3 (antibody, V domains shown)
VH: QVQLKQSGAELVKPGASVKISCKASGYIFTDYYVNWVKQRPGQGLEWIGKIGPGSVSIYYNEKFKGKATLTADKSSSTAYMQLSSLTSEDSAVYFCASYYYGFAYWGQGTLVTVSA
VL: DIVMTQAAPSVPVTPGESVSISCRSSKSLLHSNGNTYLYWFLQRPGQSPQLLIYRMSNLASGVPDRFGGSGSGTAFTLRISRVEAEDVGFYYCMQHLEYPYTFGGGTRLEIK
notes: as for B2
In the case of B15, the affinity, expressed as Kd, was 0.58 nM; the koff is 0.000174 s⁻¹; the kon came to 317000 M⁻¹ s⁻¹.

B16: 6F8 (antibody, V domains shown)
VH: QVQLKQSGPELVRPGASVKISCEASGYTFTDYYVNWVKQRPGRGLEWIGKIGPGSVSIYYNEKFKDKATLTADKSSSTAYMQLSGLTSEDSAVYFCASYYYGFAYWGQGTLVTVSA
VL: DIVMTQAAPSVPVTPGESVSISCRSSKSLLHSNGNTYLYWFLQRPGQSPQLLIYRMSNLASGVPDRFGGSGSGTAFTLRISRVEAEDVGVYYCMQHLEYPYTFGGGTKLEIKR
notes: as for B2
In the case of B16, the affinity, expressed as Kd, was 0.44 nM; the koff stood at 0.000134 s⁻¹; the kon stood at 304000 M⁻¹ s⁻¹.

B17: 8C8 (antibody, V domains shown)
VH: QVQLKQSGAELVKPGASVKISCKASGYTFTDYYVNWVKQRPGQGLEWIGKIGPESVSIYYSEKFKAKATLTADKSSSTAYMQLSSLTSEDSAVYFCASYYYGFAYWGQGTLVTVSA
VL: DIVMTQAAPSVPVTPGESVSISCRSSKSLLHSNGNTYLYWFLQRPGQSPQLLIYRMSNLASGVPDRFGGSGSGTAFTLRISRVEAEDVGVYYCMQHLEYPYTFGGGTKLEIK
notes: as for B2
For B17, the Kd is 0.89 nM, the koff was 0.00023 s⁻¹ and the kon came out at 292000 M⁻¹ s⁻¹.

B18: 3H10 (antibody, V domains shown)
VH: EVQLQQSGAELVRPGASVKLSCTASGFNIKDYYMHWVKERPEQGLEWIGRIDPEDGDIEYDPKFQGKATMTADTSSNTAYLQFSSLTSEDTAVYYCVTDYDYDGGWFAYWGQGTLVTVSA
VL: QIILTQSPAIMSASPGEKVTMTCSASSSTSFMHWYQQKPGTSPKRWIFDTSKLASGVPGRFIGSGSGTSYSLTISTMEAEDAATYYCHQRSAYPWTFGGGTKLEIK
notes: as for B2
The molecule B18 returned a Kd of 0.6 nM, a koff of 0.000178 s⁻¹ and a kon of 306000 M⁻¹ s⁻¹.
